In the supplement of paper PMC10567573:
± gives the standard deviation.

Test: protein stability index of a GFP-peptide fusion (GPS, HEK-293T) (PSI 1-6); higher = more stable
[1] = treatment: DMSO, c terminus: a fixed tail appended
[2] = treatment: MLN4924 1 uM, 8 h, c terminus: a fixed tail appended
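Also: 24-mer peptide tiles fused after GFP, lentivirally expressed, FACS-sorted into six equal bins by GFP/DsRed ratio, decoded by Illumina sequencing, PSI is the read-weighted mean bin number.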

Sequence | protein stability index [1] | protein stability index [2] | protein stability index (treatment: DMSO, c terminus: native) | protein stability index (treatment: MLN4924 1 uM, 8 h, c terminus: native)
TEIAEQEGNQKGEQATSLAILRVI [KCNA1] | 3.75 ± 0.41 | 3.56 ± 0.2 |  | 
KVKKSGSRVMFLLVDKETDKRHVE [PDZK1] |  | 3.4 ± 0.19 |  | 
FTFLQPLPLSPGVLSSTPDHSFSL [ATF4] | 2.2 ± 0.33 | 2.19 ± 0.33 |  | 
LVEETSCQQNMIQELIETNQQLRN [CEP70] | 4.3 ± 0.24 | 4.41 ± 0.3 |  | 
QVLRFYAIWDDTDSMYGECRTYII [EFHC1] | 2.91 ± 1 | 2.58 ± 0.47 |  | 
FSHSGRYIMTRDYLTVKVWDLNME [PPP2R2B] | 2.63 ± 0.49 | 2.3 ± 0.38 |  | 
RRLGNGVSDDLSSEEDGEARTQMI [PHTF1] | 5.38 ± 0.2 | 5.21 ± 0.23 |  | 
SSREVFTSSSSSSSRQTRPILKEQ [KRT16] | 4.67 ± 0.11 | 4.7 ± 0.3 |  | 
GRQPCGRFLRAYREGALRAALQRS [TRADD] | 2.56 ± 0.15 | 2.45 ± 0.4 |  | 
FLHLRTHTEERPYECNHCGKGFRH [ZNF8] | 2.79 ± 0.34 | 2.97 ± 0.36 |  | 
FFIYGQVLYTDKTYAMGHLIQRKK [TNFSF13B] | 2.4 ± 1 | 2.12 ± 0.53 |  | 
AQKALDLPSSGEGLAFFTFPNIAS [HMOX1] | 2.88 ± 0.2 | 2.96 ± 0.25 |  | 
GRGVKKRLVLCMELANGKPQTRSG [ADAMTSL2] | 2.19 ± 0.56 |  |  | 
FRSPSMPCSVIRPILKRLERPQDR [CDC25B] | 3.64 ± 0.19 | 3.56 ± 0.2 |  | 
VKVPTTLAEYCVKTKAPAPDEGSD [CDC34] | 5.07 ± 0.43 | 4.97 ± 0.12 |  | 
LPIQTPGAFLRTCLLSSNSRSLLT [TLE6] | 2.06 ± 0.34 | 2.1 ± 0.19 |  | 
LMDGGDLPSVTDIRRPRLYLLQWL [PLK2] | 2.48 ± 0.17 | 2.5 ± 0.27 |  | 
PGARGLWKPPDIKGKLMVCYETLP [SPAG8] | 2.56 ± 0.26 | 2.51 ± 0.16 |  | 
GVKLEGKVPMHKLFLEMLEAMMD [ESRRA] |  |  | 2.58 ± 0.74 | 2.66 ± 0.69
SRLLFFLLGFLRIRVRGQRASRLQ [LPCAT4] | 2.35 ± 0.09 | 2.58 ± 0.31 |  | 
LWLTASQPCSIVDVEFLPVYHPSP [LPCAT4] | 3.02 ± 0.74 | 2.53 ± 0.37 |  | 
MMKPQAETGEAARDPSLRPARTVL | 4.18 ± 0.13 | 4.33 ± 0.13 |  | 
YIIIVPLKKSRGKFIKPWESPDEM [PTPRD] | 2.5 ± 0.45 | 3.02 ± 1.5 |  | 

Sequence | protein stability index [1] | protein stability index [2] | protein stability index (treatment: DMSO, c terminus: native) | protein stability index (treatment: MLN4924 1 uM, 8 h, c terminus: native)
GGNDLCVWNRKLDLLCKTSHLSDT [WDR41] | 3.16 ± 0.39 | 3.05 ± 0.18 |  | 
DMKYGIYAVENEHMNRLQSQRAML [VTI1B] | 2.72 ± 0.25 | 2.93 ± 0.31 |  | 
DSSNPYPNFNFNISHQGDYAVLAA [AASDHPPT] | 3.24 ± 0.36 | 3.42 ± 0.41 |  | 
LAHAFQPGPGIGGDAHFDEDERWT [MMP1] | 4.73 ± 0.14 | 4.53 ± 0.21 |  | 
VTLRRGLRSRASRCRPRSLIDYKS [FAM189A2] | 2.12 ± 0.33 | 2.23 ± 0.39 |  | 
LSYVMSGYRCFVCPVEYNNDTNSF [CDS2] | 2.78 ± 0.42 | 2.82 ± 0.45 |  | 
YYEMGIHCWDVAGAGIIVTEAGGV [IMPA1] | 2.21 ± 0.34 | 2.03 ± 0.37 |  | 
ESFTVHFLPLNSAQTLHHKSCYNG [DNAAF3] | 2.4 ± 0.62 | 2.49 ± 0.42 |  | 
QADLELDYNPPRVQLSDEMFVFQD [CBY2] | 4.65 ± 0.28 | 4.83 ± 0.21 |  | 
HVPLLAEPSFAQFSQEIGLASLGA [TPH1] | 2.93 ± 0.26 | 3.09 ± 0.12 |  | 
LHLGLPWRMLRPQLVNSSADNMLE [PPEF2] | 2.87 ± 0.31 | 2.67 ± 0.48 |  | 
IGPLETMHLNAEGMLSYCDRYSEG [CRYL1] | 3.47 ± 0.48 | 3.27 ± 0.28 |  | 
TCPSSSTASSISSSGGSSGSSSDN [DYRK1B] | 5.35 ± 0.16 | 5.48 ± 0.21 |  | 
ISHEEQKSVRLARELESREAELRR [CHCHD6] | 5 ± 0.3 | 5.14 ± 0.37 |  | 
GHSTDAREMSKTFIIGELHPDDRP [CYB5A] | 4.38 ± 0.15 | 4.66 ± 0.16 |  | 
QTQTVAAQAQALAAQAAAAAHAAQ [PI4K2A] | 4.33 ± 0.22 | 4.42 ± 0.19 |  | 
EDWVLLGMANGQQWLQSTSGSQRH [TLE6] | 3.41 ± 0.5 | 3.2 ± 0.4 |  | 
LGIPKNPWLWSEQQVCQWLLWATN [ETS2] | 2.29 ± 0.3 | 2.33 ± 0.15 |  | 
INGLRRVLDELTLARADLEMQIEN [KRT17] | 3.1 ± 0.45 | 2.82 ± 0.38 |  | 
TALLSSGFSLEDPQTHSNRIYRMI [HSP90AB1] | 2.6 ± 0.36 | 2.56 ± 0.26 |  | 
HQLVMEGYNWCHDRNVVTIFSAPN [PPP2CA] | 2.51 ± 0.14 | 2.49 ± 0.18 |  | 
LQLLQSRTSRKFLACRLTPDMETK [INTS3] | 2.69 ± 0.18 | 2.68 ± 0.2 |  | 
NQWETPPEDLQTDLAKLVDQQNPT [ZNF449] | 5.36 ± 0.21 | 5.29 ± 0.26 |  | 

Sequence | protein stability index [1] | protein stability index [2] | protein stability index (treatment: DMSO, c terminus: native) | protein stability index (treatment: MLN4924 1 uM, 8 h, c terminus: native)
PQPHRNRAGLDLPTIDTGYDSQPQ [TRAF3IP2] | 4.58 ± 0.2 | 4.76 ± 0.19 |  | 
KVLRKAGLSAGYVDAGAEPGRSRM [LPCAT4] | 3.6 ± 0.31 | 3.73 ± 0.25 |  | 
RYNRKYLMCGGIAFWSLVTLGSSF [SPNS1] | 2.68 ± 0.88 | 2.77 ± 0.96 |  | 
KIDYCASSNHGCQHECVNTDDSYS [MATN2] | 4.37 ± 0.18 | 4.5 ± 0.18 |  | 
KGGNLRDKLDGNELDLSLSDLNEV [LRRC59] | 4.86 ± 0.075 | 5.11 ± 0.17 |  | 
DDTPEVLNRALSNLSSRWKNWWVR [CDS2] | 2.89 ± 0.058 | 3.12 ± 0.25 |  | 
AKVNYVKNNICFMSHHQEELVPKQ [SLC2A12] | 3 ± 0.41 | 3.16 ± 0.41 |  | 
ILIELAMRGRIYLEPPTMRKKRLL [GOLPH3L] | 2.66 ± 0.25 | 2.74 ± 0.66 |  | 
CWQGDPRVRPTFQEITSETEDLCE [RIPK4] | 4.44 ± 0.67 | 4.72 ± 0.24 |  | 
NCKPLKSYMLQDSLEHVQLFDLMR [CLK3] | 2.11 ± 0.31 | 2.25 ± 0.35 |  | 
QNLLREKIMKLPLPESLKAYLTYF [PCMTD1] | 2.49 ± 0.53 | 2.12 ± 0.36 |  | 
RPTPQDWLHRRAQILEILRRRPWA [ADAMTS4] | 2.63 ± 0.13 | 3.1 ± 0.48 |  | 
VTNPHSSQWKDPALSQLICFCRES [GADD45A] | 2.5 ± 0.24 | 2.67 ± 0.33 |  | 
VKNVVSGGFPIIRDQIFRYVHDPE [FBXO3] | 2.53 ± 0.31 | 2.63 ± 0.38 |  | 
SDSVHIEDAEAVEQLREALHEALL [ESRRA] | 3.09 ± 0.42 | 3.29 ± 0.34 |  | 
KLNLPDYHKIIKNPMDMGTIKKRL [BRD3] | 2.41 ± 0.17 | 2.48 ± 0.42 |  | 
QLLADEKMKQLTEETEVLAHEIER [TRIM35] | 5.09 ± 0.46 | 5.21 ± 0.21 |  | 
LLKYRAREPVTKAEMLGSVVGNWQ [MAGEA3] | 2.39 ± 0.2 | 2.51 ± 0.28 |  | 
DQEPLLSIDLGTAHSAAVTASGDC [NEK8] | 5.07 ± 0.32 | 5.17 ± 0.26 |  | 
GSQRARVVNTDHGSPEQLQIPVTD [SDE2] | 5.06 ± 0.22 | 4.98 ± 0.34 |  | 
RMNDLHYLNLDTWEWNELIPQGIC [KLHDC2] | 2.3 ± 0.58 | 2.31 ± 0.24 |  | 
LGNVAEVKELRPQLMTSQFISVFS [ZER1] | 2.55 ± 0.3 | 2.34 ± 0.28 |  | 
SNLHRHQRTHTGEKPYKCPECGEI [ZNF263] | 4.22 ± 0.41 | 4.53 ± 0.22 |  | 

Sequence | protein stability index [1] | protein stability index [2] | protein stability index (treatment: DMSO, c terminus: native) | protein stability index (treatment: MLN4924 1 uM, 8 h, c terminus: native)
KLEPIKSRAPQLHLEYRFYKQLGS [CSNK1G1] | 2.06 ± 0.76 | 2.27 ± 0.21 |  | 
KSTSIQVIVKEGGLKLIQIQDNGT [MLH1] | 2.18 ± 0.53 | 2.54 ± 0.56 |  | 
LELVKYLLAAGANVHATTATGDTA [ANKRD17] | 2.16 ± 0.25 | 2.08 ± 0.4 |  | 
ATDMISIFEPPVRNSGIIGGKYLG [EFHC1] | 2.92 ± 0.25 | 3.16 ± 0.21 |  | 
VQFSHHVFLNLHTLKFYCLPDNYE [USP39] | 2.89 ± 0.61 | 3.04 ± 0.74 |  | 
LRDWEDLQQDFQNIQETHRLYRLK [TMEM120A] | 3.38 ± 0.28 | 3.49 ± 0.4 |  | 
IQSGAWVCYQYPGYRGYQYILECD [CRYBA1] | 2.39 ± 0.38 | 2.58 ± 0.59 |  | 
ILAVSFAPLVQPSKNDNGKPDSVG [PCMTD1] | 2.98 ± 0.27 | 3.14 ± 0.35 |  | 
HYRELLDSLPMDAYTHGCILHPEL [GDAP1] | 2.36 ± 0.2 | 2.43 ± 0.034 |  | 
MATRSSDWLRRPLGEDNQPETQLF [TLE6] | 3.91 ± 0.1 | 3.87 ± 0.1 |  | 
VELGKQKKKYMPYNHQHKYFFLIG [FADS1] | 2.29 ± 0.94 | 3.12 ± 0.48 |  | 
APPLPGAESFPGSQVMGSGRGSLS [PLEKHN1] | 4.82 ± 0.28 | 4.61 ± 0.2 |  | 
DKSEYLEMEEGVKESLCAKEEKCQ [KCNA4] | 5.68 ± 0.1 | 5.54 ± 0.19 |  | 
LKYLHEQEILHRDLKLGNFFINEA [PLK2] | 1.85 ± 0.18 | 1.97 ± 0.3 |  | 
KPYACDECAKAFSRSAILIQHRRT [ZNF396] | 2.12 ± 0.11 | 2.37 ± 0.19 |  | 
KDRRFAYGRSDVVVLCFSIANPNS [RHOBTB1] | 2.74 ± 0.54 | 2.34 ± 0.46 |  | 
KTIKRPFGVKYNPYTRSIQILKDT [TPH1] | 2.35 ± 0.2 | 2.19 ± 0.22 |  | 
QILYESCPKYKFISCPTCRRETVL [RNF208] | 2.15 ± 0.32 | 2.23 ± 0.28 |  | 
SPPAAPCPPPPGPAAAPEGDWARL [ZBED3] | 5.08 ± 0.16 | 5.07 ± 0.063 |  | 
DVGENLTVPDEFTVEERQTGMWWR [SLC25A25] | 4.18 ± 0.14 | 4.16 ± 0.28 |  | 
